# Measurements published in patent publication US20220054617A1 (REGENTS OF THE UNIVERSITY OF MINNESOTA, published 2022).
# B1: DENV-4 antigen (other)
# chain: SNAIKGMSYTMCSGKFSIDKEMAETQHGTTVVKVKYEGTGAPCKVPIEIRDVNKEKVVGRIISSTPFAENTNSVTNIELEPPFGDSYIVIGVGDSALTLHWFR
# B2: DENV-3 antigen (other)
# chain: SNALKGMSYAMCTNTFVLKKEVSETQHGTILIKVEYKGEDAPCKIPFSTEDGQGKAHNGRLITANPVVTKKEEPVNIEAEPPFGESNIVIGIGDNALKINWYKK
# Key:
# Test in all cases: size exclusion chromatography of the tetravalent antigen mixture without adjuvant
# [1] = target: B2
# [2] = target: DENV-2 antigen (dengue virus serotype 2 (DENV-2), UniProt P14337 573-674)
# [3] = target: B1
binder,measurement,setting,value
B1,binding result,[1],no binding
same,binding result,[2],no binding
"DENV-1 antigen (other, also called DENV-1 Ag) SNALKGVSYVMCTGSFKLEKEVAETQHGTVLVQVKYEGTDAPCKIPISTQDEKGVTQNGRLITANPIVTDKEKPVNIETEPPFGESYIVIGAGEKALKLSWFK",binding result,[3],no binding
same,binding result,[1],no binding
same,binding result,[2],no binding
B2,binding result,[2],no binding
